{"source": "paper PMC7896056", "key": {"[1]": {"biological_target": "SIRT1 (183–510+GS+641–665) (human) (UniProt Q96EB6)", "sequence (Q96EB6 other isoform, or with tags, fused parts or gaps)": "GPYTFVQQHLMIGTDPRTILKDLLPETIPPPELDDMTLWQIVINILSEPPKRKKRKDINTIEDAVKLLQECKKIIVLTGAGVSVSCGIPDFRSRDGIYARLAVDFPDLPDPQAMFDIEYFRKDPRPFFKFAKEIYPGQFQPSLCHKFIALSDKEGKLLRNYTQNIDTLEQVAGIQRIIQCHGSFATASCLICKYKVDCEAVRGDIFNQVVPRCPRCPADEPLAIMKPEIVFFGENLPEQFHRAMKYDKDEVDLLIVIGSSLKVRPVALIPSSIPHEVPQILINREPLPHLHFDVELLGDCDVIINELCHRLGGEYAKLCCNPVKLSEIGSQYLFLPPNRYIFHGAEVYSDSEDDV", "assay": "ITC; Ac-p53 peptide (500 μM) titrated into 10 μM SIRT1 (183–510+GS+641–665) in the presence of 0.2 mM resveratrol; 25 °C; 20 mM HEPES pH 7.4, 150 mM NaCl, 0.5% ethanol; one-site model"}, "[2]": {"biological_target": "SIRT1 (183–510+GS+641–665) (human) (UniProt Q96EB6)", "assay": "ITC; Ac-p53 peptide (500 μM) titrated into 10 μM SIRT1 (183–510+GS+641–665), no activator; 25 °C; 20 mM HEPES pH 7.4, 150 mM NaCl, 0.5% ethanol; one-site model"}, "[3]": {"biological_target": "SIRT1 (183–510+GS+641–665) (human) (UniProt Q96EB6)", "assay": "ITC; Ac-p53 peptide (500 μM) titrated into 10 μM SIRT1 (183–510+GS+641–665) in the presence of 0.2 mM KPMF-8; 25 °C; 20 mM HEPES pH 7.4, 150 mM NaCl, 0.5% ethanol; one-site model"}}}
{"substance": "native Ac-p53 peptide", "values": [{"measurement": "Kd", "setting": "[1]", "value": 38.8, "unit": "µM"}, {"measurement": "Kd", "setting": "[2]", "value": 55, "unit": "µM"}, {"measurement": "Kd", "setting": "[3]", "value": 6.67, "unit": "µM"}]}
